Target: endogenous NIK of mouse embryonic fibroblast cells (mouse) (UniProt Q9WUL6)
Assay: cell-based or functional assay

Sequence of endogenous NIK of mouse embryonic fibroblast cells (mouse) (Q9WUL6 whole entry): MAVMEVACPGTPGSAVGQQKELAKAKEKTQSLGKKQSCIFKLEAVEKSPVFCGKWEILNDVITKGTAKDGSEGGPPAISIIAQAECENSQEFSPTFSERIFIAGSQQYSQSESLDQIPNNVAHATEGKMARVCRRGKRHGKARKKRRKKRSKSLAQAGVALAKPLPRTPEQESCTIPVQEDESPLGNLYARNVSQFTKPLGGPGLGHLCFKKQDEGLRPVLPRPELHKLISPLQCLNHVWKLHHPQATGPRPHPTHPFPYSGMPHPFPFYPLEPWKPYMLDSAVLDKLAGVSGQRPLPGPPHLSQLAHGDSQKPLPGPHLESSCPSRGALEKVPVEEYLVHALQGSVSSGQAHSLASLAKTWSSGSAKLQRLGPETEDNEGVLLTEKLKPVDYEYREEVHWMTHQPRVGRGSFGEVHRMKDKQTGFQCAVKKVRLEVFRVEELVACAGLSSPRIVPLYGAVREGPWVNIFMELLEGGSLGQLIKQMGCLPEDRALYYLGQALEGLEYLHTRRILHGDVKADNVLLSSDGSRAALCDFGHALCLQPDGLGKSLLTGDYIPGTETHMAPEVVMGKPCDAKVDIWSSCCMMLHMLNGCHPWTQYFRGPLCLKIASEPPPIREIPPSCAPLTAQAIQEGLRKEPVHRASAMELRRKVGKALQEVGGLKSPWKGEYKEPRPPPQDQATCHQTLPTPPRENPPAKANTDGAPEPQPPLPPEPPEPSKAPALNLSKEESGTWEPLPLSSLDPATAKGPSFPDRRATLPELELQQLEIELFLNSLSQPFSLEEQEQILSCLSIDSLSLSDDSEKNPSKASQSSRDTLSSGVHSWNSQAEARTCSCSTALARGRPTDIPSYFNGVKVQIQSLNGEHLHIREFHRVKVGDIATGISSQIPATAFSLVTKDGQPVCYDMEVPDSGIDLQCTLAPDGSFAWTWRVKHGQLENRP

Row | NF-κB activation by LTβ, luciferase reporter, mouse embryonic fibroblast cells [fold] | decrease in NF-κB activation by LTβ, luciferase reporter, mouse embryonic fibroblast cells [%] | Substance
1 | 2.5 |  | GST fusion protein with the intracellular domain of cγc (from UniProt P31785 284-369)
2 |  | 50 | GST-41MDD fusion protein (from UniProt P31785 329-369)

Reference: patent publication US20050287144A1
